Assay results reported in paper PMC6141813, “NagRBt Is a Pleiotropic and Dual Transcriptional Regulator in Bacillus thuringiensis”.

B1: crr (ptsA) dre probe (H) (dsDNA)
DNA 1: TTTTTTTGCCCAACTTGTCTAGAGGTCTTTACTACATTTT
DNA 2: AAAATGTAGTAAAGACCTCTAGACAAGTTGGGCAAAAAAA
B2: chiA dre probe (D) (dsDNA)
DNA 1: AACCAATCATCTAGACAACTATATAACACGAACGTTTTAC
DNA 2: GTAAAACGTTCGTGTTATATAGTTGTCTAGATGATTGGTT

Molecular target: NagRBt (formerly YvoABt) (Bacillus thuringiensis strain Bti75, UniProt A0A1T3UL85 1-243)
Assay: EMSA; EMSA: 10 mM Tris-HCl pH 8.0, 1 mM MgCl2, 50 mM NaCl, 0.5 mM DTT, 0.5 mM EDTA, 5% glycerol, 30 C, 30 min; 0.2 uM probe; competition with 3.0 uM NagRBt, 400-fold
Details: protein: recombinant; tags: C-terminal His (pET-28a(+)); chain copies: 2; unlabeled (EB stain); blunt

Binder	binding result
B1	binds
B2	binds
